Source: publication PMC2191632 (The Journal of Experimental Medicine, 1994)
Where no end group is shown, it is not given here.

Tests used:
[1] = biological target: HLA-DR4 (DRA-DRB1*0406 complex) (human (endogenous in KT13)); test: radioligand binding
[2] = biological target: DRB1*0406 complex (Homo sapiens, UniProt P01903+P01911, A100R/A103E/A169T/F76Y/I96L/K127E/L162R/M171V/N62H/P40V/Q125Y/R42H/S133A/S149N/V209L/W38E); assay type: binding
[3] = biological target: DRB1*0405 complex (HLA-DR4, DRA-DRB1*0405) (Homo sapiens, UniProt P01903+P01911, A100R/A169T/D86S/F76Y/I96L/K127E/L162R/M171V/N62H/P40V/Q125Y/R42H/S133A/S149N/S66Y/V115G/V209L/W38E); assay type: binding
[4] = Solubility of polyalanine-based peptide; assay type: physicochemical; conditions: in words; lysine then inserted at NH2 terminus to increase solubility
[5] = biological target: HLA-DR4 (DRA-DRB1*0405 complex) (human (endogenous in EBWa)); test: radioligand binding

| Molecule | IC50 [1] [µM] | percent inhibition of 125I-0405BP3 binding at 20 uM [5] [%] | percent inhibition of 125I-0405BP3 binding at 20 uM [1] [%] | further results |
| --- | --- | --- | --- | --- |
| K-Ins beta p1-18 (…) (peptide) | > 500 |  |  |  |
| AAYAALANAA |  |  |  | IC50 [2]: 5 µM; IC50 [3]: 1.4 µM |
| AAYAAVAVAA |  |  |  | Solubility [4]: not soluble |
| AALAAIASAA |  |  |  | IC50 [2]: 8.8 µM; IC50 [3]: 11 µM |
| AAFAAMASAA |  |  |  | IC50 [2]: 1.1 µM; IC50 [3]: 3.6 µM |
| KAAYAAVAVAA |  |  |  | IC50 [2]: 12.2 µM; IC50 [3]: 5.1 µM |
| EGQLVSIHSPEEQDFLTKHA [CD23p195-214 (…)] |  | 59 | 63 |  |
| NELSGEAHKDALGKLY [irrelevant peptide (…), unlabeled] |  | 1 | 2 |  |
| SPGTGAYYVLLN [0405BP2 (…)] |  | 93 | 85 |  |
| KAAYAAVAVAA | 12.2 |  |  |  |
| KLVEALYLVCGERGFFYTPKT [K-Ins beta p11-30 (…)] | 14.5 |  |  |  |
| AAKAAKAGAA | > 500 |  |  |  |
| KKTSICSLYQLE [KK-Ins alpha p8-17 (…)] | 4.1 |  |  |  |
| AAYAALANAA | 5 |  |  |  |
| GSTVFDNLPAPE [… with 10th N to A] |  |  |  | percent by which the substitution inhibited binding (against …) [5]: 70% |
| KGIVEQCCTSI [K-Ins alpha p1-10 (…)] | > 500 |  |  |  |
| GSTVFDNLPNPEIDGDYYGW [0405BP3 (…), unlabeled] |  | 97 | 96 | Kd [5]: 0.07 µM |
| VPIQRAVYQNVVVNN [0405BP1 (…), unlabeled] |  | 103 | 70 |  |
| GPKPLFRRMSSLVGPTQSFF [CD20p26-45 (…)] |  | 90 | 96 |  |
| SDPILYRPVAVALDTKGPE [PKM2p99-117 (…), unlabeled] |  | 90 | 71 |  |
| KSLYQLENYCN [K-Ins alpha p12-21 (…)] | 12 |  |  |  |
| AAFAAMASAA | 1.1 |  |  |  |
| AALAAIASAA | 8.8 |  |  |  |
